Data taken from US11718646B2, “Bovine adrenal medulla peptide 8-22 compounds and methods of use thereof for treating pain” (Tufts Medical Center, priority 2015, dated 2023).
No end group written: not given here.

What was measured:
MrgprX1 F273L variant = molecular target: T1, MrgprX1 F273L variant (Homo sapiens, UniProt Q96LB2, F273L); experiment: SRE-luciferase reporter gene assay in transfected HEK293 cells, F273L variant; type: cell-based; settings: significant only with tethered γ2-MSH
T1 construct: expressed in transfected cells; host or cells: HEK293
T1 sequence (Q96LB2 whole entry F273L): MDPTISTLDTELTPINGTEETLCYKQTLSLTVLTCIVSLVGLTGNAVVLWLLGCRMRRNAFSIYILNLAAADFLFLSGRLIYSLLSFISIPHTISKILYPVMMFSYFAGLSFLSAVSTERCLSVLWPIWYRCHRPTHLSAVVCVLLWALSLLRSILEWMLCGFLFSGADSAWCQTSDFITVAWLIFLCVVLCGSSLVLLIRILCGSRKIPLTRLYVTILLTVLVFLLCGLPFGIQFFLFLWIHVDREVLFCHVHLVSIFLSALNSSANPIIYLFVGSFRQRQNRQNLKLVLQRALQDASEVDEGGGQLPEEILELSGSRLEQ
Experimental: (§1) A luciferase reporter-based assay was utilized as an index of receptor-mediated signaling (as in Doyle et al., 2013). Human kidney cells (HEK293), grown in Dulbecco's modified Eagle's medium (DMEM) containing 10% FBS, 100 U/ml penicillin, and 100 μg/ml streptomycin were seeded in 96-well plates and grown to 80% confluence. […]
(§2) Twenty-four hours following transfection, cells were stimulated with soluble ligand for 4 hours (if applicable). After addition of SteadyLite reagent (PerkinElmer, Chicago, Ill.), luciferase activity of the lysate was measured using a TopCount NTX plate reader. Subsequently, 2-nitrophenyl β-D-galactopyranoside (ONPG) was added as a colorimetric substrate to enable quantification of β-galactosidase levels. After incubation with ONPG for 30 minutes, absorbance at 420 nm was measured using a SpectraMax microplate reader (Molecular Devices). […] Data were graphed and statistically analyzed using Graphpad Prism software.
(§3) GraphPad Prism software version 6.0 (GraphPad Software Inc., La Jolla, Calif.) was used for sigmoidal curve fitting of ligand concentration—response curves, linear regression, and statistical analysis. EC50 and pEC50 values were calculated for each independent experiment as an index of ligand potency. […]
(§4) The activity of tethered and lipidated BAMS-22 at each of the seven MrgprX1 variants was assessed (FIGS. 4A-4B). […]

MrgprX1 H133R variant = molecular target: T2, MrgprX1 H133R variant (Homo sapiens, UniProt Q96LB2, H133R); experiment: SRE-luciferase reporter gene assay in transfected HEK293 cells, H133R variant; type: cell-based
T2 construct: expressed in transfected cells; host or cells: HEK293
T2 sequence (Q96LB2 whole entry H133R): as the sequence (Q96LB2 whole entry F273L) above, with H133R, L273F counted along it
Experimental: as §1, §2, §3, §4

MrgprX1 R55L variant = molecular target: T3, MrgprX1 R55L variant (Homo sapiens, UniProt Q96LB2, R55L); experiment: SRE-luciferase reporter gene assay in transfected HEK293 cells, R55L variant; type: cell-based; settings: significant only with tethered γ2-MSH
T3 construct: expressed in transfected cells; host or cells: HEK293
T3 sequence (Q96LB2 whole entry R55L): as the sequence (Q96LB2 whole entry F273L) above, with R55L, L273F counted along it
Experimental: as §1, §2, §3, §4

wild type MrgprX1 = molecular target: T4, wild type MrgprX1 (Homo sapiens, UniProt Q96LB2); experiment: SRE-luciferase reporter gene assay in transfected HEK293 cells, wild type receptor; type: cell-based
T4 construct: expressed in transfected cells; host or cells: HEK293
T4 sequence (Q96LB2 whole entry): as the sequence (Q96LB2 whole entry F273L) above, with L273F counted along it
Experimental: A luciferase reporter-based assay was utilized as an index of receptor-mediated signaling (as in Doyle et al., 2013). Human kidney cells (HEK293), grown in Dulbecco's modified Eagle's medium (DMEM) containing 10% FBS, 100 U/ml penicillin, and 100 μg/ml streptomycin were seeded in 96-well plates and grown to 80% confluence. Using polyethylenimine (PEI, 2.0 μg/mL in serum-free DMEM), cells were transiently transfected with cDNAs encoding (a) wild type or variant MrgprX1 (3 ng/well); (b) an SRE-luciferase PEST construct (SRE5×-Luc-PEST), which includes five SRE repeats, a luciferase reporter gene, and the protein degradation sequence hPEST (Promega, catalog #E1340) (25 ng/well); and (c) a CMV-β-galactosidase construct as a control for variability in transfection efficiency (10 ng/well). In experiments that included transfection of an MTL-encoding construct, the corresponding cDNA was added to the transfection mix, at 4 ng/well or as indicated.
Twenty-four hours following transfection, cells were stimulated with soluble ligand for 4 hours (if applicable). After addition of SteadyLite reagent (PerkinElmer, Chicago, Ill.), luciferase activity of the lysate was measured using a TopCount NTX plate reader. Subsequently, 2-nitrophenyl β-D-galactopyranoside (ONPG) was added as a colorimetric substrate to enable quantification of β-galactosidase levels. After incubation with ONPG for 30 minutes, absorbance at 420 nm was measured using a SpectraMax microplate reader (Molecular Devices). Luciferase activity was normalized using the β-galactosidase activity data. Three independent experiments were performed, each with three technical replicates. Data were graphed and statistically analyzed using Graphpad Prism software.
GraphPad Prism software version 6.0 (GraphPad Software Inc., La Jolla, Calif.) was used for sigmoidal curve fitting of ligand concentration—response curves, linear regression, and statistical analysis. EC50 and pEC50 values were calculated for each independent experiment as an index of ligand potency. Reported values represent the mean of three independent experiments. Statistical comparisons were made by one-way analysis of variance with Dunnett's multiple comparisons test.
As additional tools for structure-function studies, MTLs incorporating one of two endogenous peptide ligands for MrgprX1, BAMS-22 and γ2-MSH, were generated. The activities of MTL constructs in both orientations (type I, with an extracellular N terminus of the ligand; type II, with an extracellular C terminus) were assessed using a luciferase-based reporter assay as described herein. […] Luciferase activity was quantified and normalized relative to β-galactosidase expression. […]

MrgprX1 R131S variant = molecular target: T5, MrgprX1 R131S variant (Homo sapiens, UniProt Q96LB2, R131S); experiment: SRE-luciferase reporter gene assay in transfected HEK293 cells, R131S variant; type: cell-based
T5 construct: expressed in transfected cells; host or cells: HEK293
T5 sequence (Q96LB2 whole entry R131S): as the sequence (Q96LB2 whole entry F273L) above, with R131S, L273F counted along it
Experimental: as §1, §2, §3
Signaling of MrgprX1 following stimulation with the endogenous peptide ligand BAM8-22 was measured using a luciferase reporter assay as described herein. […]

[1] = test system: spinal nerve ligation neuropathic pain; settings: intrathecal; rats; cited from earlier work

ligand-mediated signaling compared to wild type receptor (MrgprX1 F273L variant)	ligand-mediated signaling compared to wild type receptor (MrgprX1 H133R variant)	ligand-mediated signaling compared to wild type receptor (MrgprX1 R55L variant)	signaling at saturating concentration, of maximum lipidated BAM8-22 signaling (wild type MrgprX1; WT receptor, relative to lipidated BAM8-22 at 10^−7 M, mean±SEM, data not shown) [%]	MTL activation of the receptor (wild type MrgprX1; co-expressed with MrgprX1 in HEK293, increasing amounts of MTL cDNA, FIG. 3A, 3B)	tethered ligand induced receptor activity of substituted BAM8-22 MTL (wild type MrgprX1; MTL construct in HEK293 cells)	receptor stimulation at the highest tested concentration (wild type MrgprX1; 10 μM, accurate EC50 values could not be calculated)	Substance	ligand-mediated signaling compared to wild type receptor (MrgprX1 R131S variant)	time after administration at which the effect returns to baseline [1] [min]
moderate decrease in signaling	not observed	moderate decrease in signaling	38.4±5.4	Active			tethered BAM8-22: cDNA-encoded type I membrane tethered ligand: BAM8-22 fused to a transmembrane domain via a flexible linker, free extracellular N terminus (VGRPEWWMDYQKRYG; also: fused at C-terminus via flexible linker to a transmembrane domain (type I tethered ligand))	negligible signaling levels	
					full activity		M15A-Y17W: double substituted BAM8-22 MTL analog, M15A and Y17W (VGRPEWWADWQKRYG; left off: small tags and cut ends; large carriers)		
						does not fully stimulate the receptors	bovine adrenal medulla peptide 8-22 (VGRPEWWMDYQKRYG) [BAM8-22, reference compound]	lower levels of BAMS-22 mediated activity	90
